Laboratory results taken from patent US20150259666.

Target: Human PAI-1 (plasminogen activator inhibitor-1), P05121
Sequence (P05121 whole entry, looked up): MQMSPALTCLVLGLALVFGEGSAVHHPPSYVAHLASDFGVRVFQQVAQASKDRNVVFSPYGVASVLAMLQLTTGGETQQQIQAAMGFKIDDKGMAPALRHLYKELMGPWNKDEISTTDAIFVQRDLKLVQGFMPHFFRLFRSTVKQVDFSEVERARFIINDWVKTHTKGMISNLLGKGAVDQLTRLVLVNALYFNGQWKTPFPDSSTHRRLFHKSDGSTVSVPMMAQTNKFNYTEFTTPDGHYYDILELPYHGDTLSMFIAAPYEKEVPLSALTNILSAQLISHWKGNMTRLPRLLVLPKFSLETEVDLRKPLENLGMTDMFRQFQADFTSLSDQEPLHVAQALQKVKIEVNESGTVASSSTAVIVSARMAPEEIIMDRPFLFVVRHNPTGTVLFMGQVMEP

B1: full length t-PA (native human tissue plasminogen activator) (protein)
chain: SYQVICRDEKTQMIYQQHQSWLRPVLRSNRVEYCWCNSGRAQCHSVPVKSCSEPRCFNGGTCQQALYFSDFVCQCPEGFAGKCCEIDTRATCYEDQGISYRGTWSTAESGAECTNWNSSALAQKPYSGRRPDAIRLGLGNHNYCRNPDRDSKPWCYVFKAGKYSSEFCSTPACSEGNSDCYFGNGSAYRGTHSLTESGASCLPWNSMILIGKVYTAQNPSAQALGLGKHNYCRNPDGDAKPWCHVLKNRRLTWEYCDVPSCSTCGLRQYSQPQFRIKGGLFADIASHPWQAAIFAKHRRSPGERFLCGGILISSCWILSAAHCFQERFPPHHLTVILGRTYRVVPGEEEQKFEVEKYIVHKEFDDDTYDNDIALLQLKSDSSRCAQESSVVRTVCLPPADLQLPDWTECELSGYGKHEALSPFYSERLKEAHVRLYPSSRCTSQHLLNRTVTDNMLCAGDTRSGGPQANLHDACQGDSGGPLVCLNDGRMTLVGIISWGLGCGQKDVPGVYTKVTNYLDWIRDNMRP
- residual enzyme activity after 1 hour incubation with PAI-1 (PAI-1 resistance): Full length t-PA preserve the enzyme activity up to 54%
